Here are results for 1 molecule from US20230310634A1, “ANTI-HUMAN VISTA ANTIBODIES AND USE THEREOF” (IMMUNEXT, INC., priority 2020, published 2023).

For assay [1], the target named is T1, human VISTA on cells (human) (UniProt Q9H7M9).
T1 sequence: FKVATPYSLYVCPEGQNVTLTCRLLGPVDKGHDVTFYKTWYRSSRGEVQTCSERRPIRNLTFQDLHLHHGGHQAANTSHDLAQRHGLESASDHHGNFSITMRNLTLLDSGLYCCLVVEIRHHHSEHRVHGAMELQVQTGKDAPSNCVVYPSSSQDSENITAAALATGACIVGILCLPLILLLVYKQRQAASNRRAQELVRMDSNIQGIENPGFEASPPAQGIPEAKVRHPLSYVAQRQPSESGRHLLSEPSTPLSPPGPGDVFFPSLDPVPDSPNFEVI
The assay is described as follows: flow cytometry with quantification beads, CD4+ T cells of human PBMC, n=5 donors. Background: Flow cytometry measures light scatter and fluorescence of single cells or particles in a stream.

In assay [2] the target is T1, human VISTA on cells (human). Kind of assay: flow cytometry with quantification beads, CD8+ T cells of human PBMC, n=5 donors.
Assay [3] has the same target. The assay is described as follows: flow cytometry with quantification beads, Tregs in human whole blood, n=3 donors.
Assay [4] has the same target. Kind of assay: flow cytometry with quantification beads, CD14+ monocytes of human PBMC, n=5 donors.
The target is the same in assay [5]. The assay is described as follows: flow cytometry with quantification beads, CD4+ T cells in human whole blood, n=3 donors.
Assay [6] has the same target. The assay is described as follows: flow cytometry with quantification beads, CD8+ T cells in human whole blood, n=3 donors.
Assay [7] has the same target. Kind of assay: flow cytometry with quantification beads, CD20+ B cells in human whole blood, n=3 donors.
Assay [8] shares this target. Kind of assay: flow cytometry with quantification beads, CD14+ monocytes in human whole blood, n=3 donors.
For assay [9] the target is unchanged. The assay is described as follows: flow cytometry with quantification beads, CD4+ CD25+ CD127low Tregs of human PBMC, n=5 donors.
Assay [10] has the same target. Kind of assay: flow cytometry with quantification beads, CD66b+ neutrophils in human whole blood, n=3 donors.

B1: Anti-VISTA GG8 (antibody, V domains shown)
VH: EVQLQQSGPELVKPGTSMKISCKASGYSFTGYTMNWVRQSHGKNLEWIGLINPYNGGINYNQKFKARATLTVDKSSSTAYMELLSLTSEDSAVYYCARRTLLRPYFFDYWGQGTTLTVSS
VL: DIVLTQSPASLAVSLGQRATISCRASQSVSTSTFSYMHWYQQKPGQPPKLLIKYASNLESGVPARFSGSGSGTDFTLNIHPVEEEDTATYYCQHSWEIPYTFGGGTKLEIK
modifications: Alexa Fluor 647 dye conjugated to the antibody (p-1554); attachment sites not given
Consider B1, for which the antibody binding capacity (ABC) in [1] turned out to be 5940 molecules; in [2], 9960 molecules; in assay [3], 7490 molecules; in [5], 8720 molecules; in assay [6], 5010 molecules; in assay [9], 6640 molecules. Also, the antibody binding capacity (ABC) (ABC (molecules per cell)) in assay [4] worked out at 112000; in [7], 1280; in assay [8], 224000; in assay [10], 68600.
